We go through 19 sequences from the DeepSol protein solubility set.

The nature of this data set: soluble on expression in E. coli; label from the status in PepcDB or PDB records.
As to “MGCVPRIEFGCSSQSLTLSWNLRAWNLCRLNTISHFQKLPYPLVASTRKHYKNSLLLKRFLVGVGTEESSLSEDLLDESLSRPLTSDELKSLLIDTERSKLVKKLSEANQQNRFLKRQEHEITNIKTELALMELEVQALVKLAEEIANLGIPQGSRKISGKYIQSHLLSRLDAVQKKMKEQIKGVEAAQSKEVHVFWIGMAESVQVMGSFDGWSQREDLSPEYSALFTKFSTTLFLRPGRYEMKFLVDGEWQISPEFPTSGEGLMENNVLVVE”, the “soluble on expression in E. coli” value is “soluble”.

Consider “MKWGFRWYGAAGDAIPLKHIRQIPGITGVVGTLLNKLPGDVWTVAEIQALKQSVEQEGLALLGIESVAIHDAIKAGTDQRDHYIDNYRQTLRNLGKCGISLVCYSFKPIFGWAKTDLAYENEDGSLSLLFDQAVVENMQPEDMYQLIHSQSKGFRLPGWEEERLQQFQELKAMYAGVTEEDLVENLRYFLERVIPVCEEENIKMGIHPDDPPWEIFGLPRITKNLADLKRILSLVDSPANGITFCTGSLGADPTNDLPTMIREIGHRINFVHFRNVKYLGEHRFEETAHPSVAGSLDMAELMQALVDVGYEGVIRPDHGRAIWDEKAMPGYGLYDRAMGLTYIQGLYEATKAKQNRKLEHHHHHH”, for which the “soluble on expression in E. coli” value was “soluble”.

For the sequence “MHMQLKGKTALVTGSTAGIGKAIATSLVAEGANVLINGRREENVNETIKEIRAQYPDAILQPVVADLGTEQGCQDVIEKYPKVDILINNLGIFEPVEYFDIPDEDWFKLFEVNIMSGVRLTRSYLKKMIERKEGRVIFIASEAAIMPSQEMAHYSATKTMQLSLSRSLAELTTGTNVTVNTIMPGSTLTEGVETMLNSLYPNEQLTIEEAEKRFMKENRPTSIIQRLIRPEEIAHLVTFLSSPLSSAINGSALRIDGGLVRSVF”, the “soluble on expression in E. coli” value is on record as “not soluble”.

For “MGCYHPLSGTDGTLMRHTLPIAPQFYVTAPQPCPYLAGRMERKLFTALQGEGAERLNNALSQQGFRRSQNVLYRPSCADCAACLSARIDVSAFRASRSQKRAMRRNAHLTRRATSPWATDEQYELFRRYLDSRHADGGMADMDVFEFAAMIEETPIRSRVIEYAHRDTRALIGVSLTDVLDDGLSMVYSFYDPDLHRDSLGTHMILDHIAIAREAGLPYVYLGYWVPGSPKMGYKSRFSGLEIYLGGRWQAMTDPEAHDAIRHPLSTDPIAEQVANIQLPDRWPTGDLEHHHHHH”, the “soluble on expression in E. coli” value is on record as “not soluble”.

For the sequence “MGSDKIHHHHHHMVDSLQKPELEELRPGIKAPAKETILTPRFYTTDFEAMAKMDLSPNEDELRAILEEFRADYNRKHFVRTPEFDGSAADMDPETKKVFVEFLEQSCTSEFSGFLLYKELSRRIKNRNPLLAECFELMARDEARHAGFLNKSMSDFDLQLDLGFLTANKKYTYFKPAYIFYATYLSEKIGYWRYITIFRHLEQHPEYRIYPIFKFFENWCQDENRHGDFFDALMKAQPSTVRGFVAKLWCRFFLLAVFATMYIRDVQRKEFYEALGLDAREYDRHVIAKTNETSARVFPVVLDVDHPKFYDRLETCIANNNQLAAIEATSAPKPVKVLRKLPYYLSNGLQLLKLYLVKPLESDVYQPAVR”, the “soluble on expression in E. coli” value was “not soluble”.

As for “MLYAATRATLKKEFGGGHIKDEVFGTVKEDVSLHGYKKYLLSQSSPAPLTAAEEELRQIKINEVQTDVGVDTKHQTLQGVAFPISREAFQALEKLNNRQLNYVQLEIDIKNEIIILANTTNTELKDLPKRIPKDSARYHFFLYKHSHEGDYLESIVFIYSMPGYTCSIRERMLYSSCKSRLLEIVERQLQMDVIRKIEIDNGDELTADFLYEEVHPKQHAHKQSFAKPKGPAGKRGIRRLIRGPAETEATTD”, the “soluble on expression in E. coli” value is recorded as “soluble”.

“MGSDKIHHHHHHDKLDLSPIDYYGSGSYWKTEAQATAYIDGIHKHLRDAAWQHTITFGELRGGRFITGASSDGMGVSNGDIILQNFDETHTGVSKFGDLFGRITNLNLFIARVTDATYLSDEMKNFYLGEVYGLRAFYYFDLYRIYGGVPLRLTADVVEGVIDPNKLYMARSTPKEVMTQIKSDLNKSMEYFGNMNDFDPYKRGKKVYWSKAATECLMGEVYLWTSKVTTGDDVANPADLTIAKTHLESVLNNYNLKMLDDFSQVFNAKNKANDEIIFAIRFLEGEATNSNGTFTYNVGTGSTKNRYQANGEVFGDALDIQNTGNQTYEYNKAVYQNFDDADTRKEATFIASYNKDGKTGELSLYGTHVRKNIGYVNAQGARVYCGDYIFYRLPWVYLTLAEIANMEGDNAAVAKYINLVRKRAYGNAWDETLYAYPETADFTTNELAILHEKDKEFIQEGQRWWDLRRMTLTKGGTPLVFCKEGSLLGDAPILNKSTEAHKLLWPIEKTMLNKDPALEQTPGYK”: the “soluble on expression in E. coli” value is given as “not soluble”.

On to “MEGLNVLVTGSTCGLGLHTAKILFKKGANVILTCRDEIRGRHAVESLLSGVSQEQSQKEAERIHLFTLDVTNYNSICNFTDEISRMFKYLHVIINNAGIMGMPFELSVDGIEMHFATNVFGHYVVVERLLPLLLKTDRPDFKSRVIVVSSGLYRNAEAIPQVSKLLGQKTYDYSPKQAYAFSKLANCLYTGALSKMLEPHNVGVYCVRPGFVNGTELGRETHWILRALAAPIIWFIAKTLEQGCETIVYLAETSGNQLKNGSMYYERKEEAYNEMVEVTSIRQVWAILRHLEDTVWKRNTQMTDEQRNHGEMVRELLNESLIV”, for which the “soluble on expression in E. coli” value is listed as “not soluble”.

With “MDITLRTLTENDLPFVKDIYDYYTLHTTVVYFVHCASIDELKNYIPVGDPVYRSFIIETPEGAPCGFCYFARFKPREAFRISVELTLYLKPEFTGRGYGKQAILRLEEIIRQEGFSNIMALISGENEASIRLFEKCGFECCANIRQVAEKFGKKLDLRMYQKIISDNSHLTP”, the “soluble on expression in E. coli” value is “not soluble”.

“MAMKDKLKNFFSMEDEEYEYEYIETERESHVEHEQKEKPAYNGNKPAGKQNVVSLQSVQKSSKVVLSEPRVYAEAQEIADHLKNRRADVVNLQRIQHDQAKRIVDFLSGTVYAIGGDIQRIGSDIFLCTPDNVDVSGTISELISEDEHQRWLEHHHHHH”: the “soluble on expression in E. coli” value is listed as “not soluble”.

Turning to “MYPLTLLRISRNRIVELELKNNDQLRGLLHKCDMAMNLHLKSVTIQKEDGSSIFINECYLKGTSIRLVKLESKILLEQREECVSNNKA”, the “soluble on expression in E. coli” value is on record as “not soluble”.

For the sequence “MGNWLLPEGLADVLPAEARRIEELRRELLDLYRTYGFELVAPPLVEYIDSLLSSTGSDLNLRTCKLVDQLSGRTLGVRADMTSQVTRIDAHLLNRAGVTRLCYCGSVLHARPADLLSSRELLQIGAEIYGHAGFEADLEIIQLVMDTLATAGVRNARLDLCHSGVMRAIFDADPQASRHAGDLCTLLREKDVPGLAELASRVDGLGEDTVRALQALATLYGGPEIIARARRELPAVPGMAQALDALQALVDAMPGVTLSVDLADVGGYGYHSGVTFAVYGEDWHDALVRGGRYDDVSRAFGRARPATGFSLDLRKLAAGLTPAEPARAVRAPWGQDPALTDAVRRLRRSGEIVVQVLPGHEQGLDEFVCDRELALQDGAWTVRTL”, the “soluble on expression in E. coli” value was “not soluble”.

In the case of “MSSVVVVGTQWGDEGKGKITDFLSEHAEVVARYQGGNNAGHTIVFGGVKYKLHLIPSGIFYKEKICVIGNGLVVDPKALLEELKYLHDRGVSTDNLRVSNRAHVILPYHLKQDELEEASKGDNKIGTTKKGIGPAYMDKAARIGIRMADLLDREAFKEKLEQNLAQKNRLFEKMYDTEGFSVDEIFEEYFEYGQQIAQYVCDTSVVLNDALDNNHRVLFEGAQGVMLDIDHGTYPFVTSSNPIAGGVTVGTGVGPAKVTRVVGVCKAYTSRVGDGPFPTELHDEIGHQIREVGREYGTTTGRPRRVGWFDSVVVRHARRVSGLTDLSLNSIDVLTGIPTLKICVAYKCDGKVIDEVPANLNILAKCEPVYEELPGWTEDITGVRSLDELPENARKYVERVSELTGIQLSMFSVGPDRNQTNIVRNVYEA”, the “soluble on expression in E. coli” value is recorded as “not soluble”.

As to “MDKPQEECGILGLWSEGPVDVAGLLHLGLLALQHRGQEAAGMAVTDGKAFLVEKDLGLVNQVFTEERLGKLRLPEARLGIAHTRYSTTGSNLRINAQPLTARTAHGVLAIAHNGNFTNAKLLRDRLLLEGATFQSTSDTEVMLLLLARMGHLPLPEAAAQAMRLLQGGYSILLMNRKTLLALRDPHGVRPLVLGKAPWGYAFASEPPALLLMGAEYVRDVRPGEVVWVEEGRLQSLQALPPEPAPCAFEWIYFARPDSVLDGTEAYEARVRMGMELFREAPAEADLVVPVPDSGIGAAVGYAKASGLPLEFGLYKNPYAGRTFIQPTQELRDLKTRLKLSPTGAVKGKRVVLVDDSIVRGTTSRRIVRMLKEAGALEVHFRVSSPPIRFPCYYGIDTAARKELIAAEKSVEEIQAYIGADSLAFLSEEGVKRAIGRPVCLACFNGRYPAGVPEEGEKLALELL”, the “soluble on expression in E. coli” value is reported as “soluble”.

Consider “MGSDKIHHHHHHMRVKIYTLADDYAGYNSPFWAQHGVSFLVEVEGKKILFDTASYAEPILFNMKLLNLNPRDIDMIVLSHNHFDHTGGLLGILREINRKVPIFAHPEIFKVSFALEPEFMYAGTPRLKEEAEKLGGIWILTRDPITLMPGVFTLGEIKEEEKVEFEKGSTGLFKIEDGRVIEDKVEDEIGLAINTRKGLVVLAGCAHPGIVSMVKKAIKLSGNDKVYAVLGGFHLINAEDSRIEKTVEAFKELEVKKVYAGHCTGLKAESRFAQELGDRFEKLHSGKIIEIS”, for which the “soluble on expression in E. coli” value is recorded as “not soluble”.

With “MEGSEEHSTDGEISSSEEEDEDPTPAHAIPARPSSVVITPTSASFVIPRKKWDLQDKTVTLHRSPLCRDEDEKEETGNSSYTRGHKRRRGEVHGCTDESYGKRRHLPPGARAPRAPRAPRVPRAPRSPRAPRSNRATRGPRSESRGAGRSTRKQARQERSQRPLPNKPWFDMSLVKPVSKITFVTLPSPLASLTLEPIQDPFLQSMLAVAAHPEIGAWQKVQPRHELRRSYKTLREFFTKSTNKDTWLDARMQAIQNAGLCTLVAMLEETIFWLQEITYHGDLPLAPAEDILLACAMSLSKVILTKLKELAPCFLPNTRDYNFVKQLFYITCATARQNKVVETLSSSYVKQPLCLLAAYAAVAPAYINANCRRRHDEVEFLGHYIKNYNPGTLSSLLTEAVETHTRDCRSASCSRLVRAILSPGTGSLGLFFVPGLNQ”, the “soluble on expression in E. coli” value was “soluble”.

Turning to “MAHHHHHHMRRVVASRKAICEYRLYSQVSPQGYPVTAVTPQQIRRVPFYRHRKLYDLTTRELSEEAIRDFLPPKPAVPAGWSMEHKIGSCRFDLTKTMGADDSAREDLHVVALMEPKKYEQTYRMDNGERNGEEYLVFNLFIKKHQHSGGVEFGLTSIDMELVMDSLVVHSTDREMDYSIGALGPGKTTSVGTSFGQKLNIECRRCRDYRYRGPMLNELDDDLTDEILDYLDERGVNNGFAEYMMAQAHFLEQEEYLNWLRLLKQFAT”, the “soluble on expression in E. coli” value is listed as “not soluble”.

Regarding “MAHHHHHHMLKRSGTICSLQSVVRGAAKIAAAIVDASVGNVNVVDNSHNGEGGTPARAAGRSHTSSPPEVLPRSVVTQLHESKDDLRKNAVYMSVPSTRITRAAGFASLFVQLGWDHLVDRNGEGILSSQSHKRVVNTLRRMRGVVLKLGQMLSIQDPATVPQYVLQLFEQVRDSAYAMSREQLDQTLAKEYENINWRKDFFLEFDDEPIGAASIGQVHRATIKGEGDTQIEHVAVKVQYPGVATSIDSDIANLKMLISLHLLPPGMFVDRILQDLRQEFLLECRYKIEAAKQVRYAALIKQEPELQEVFVVPKVYESLSTENVLVTQFVTGIPVDRLANISGVQDLKNYVAERMLLLTLTELFRWRFMQTDPNYANFLFDAEKNKISLIDFGAAREYSKEFVKDYMDVVAAAARQDRDRIIEKSIKLGFLTGNEMKPMLDAHAASVELLGRPFRHHDKPFDFSAENLPSKIQEHVPTIIKLRLRPPPTPVYSLHRRISGIILLATKLKATVNSGEMFWNIYNSCRTNYE”, the “soluble on expression in E. coli” value is “not soluble”.

With “MAHHHHHHMRHMCVTLKRRACTVSFSPFLMSYFQSMLMPYRDSVRSSKSDKASSRTVNEEAKVSLSAFSFLFSEMCTRAHNTPSKASNVEEIEQRLTSLGVLVGARLIMLSSLKDPLELQRRPITIEGALKLFQDKLWSRWFGKPANDLQRETGSDRFFIFDTEPIVLRYVYPSPEYLDGEGRWSINYASFMGGIVEGALKAIGFAAEVLTYHQPEPSKPHQSIFAISFAKHVWDRERRLRG”, the “soluble on expression in E. coli” value was “not soluble”.
